Among the data in patent US20030229203A1 are concentration sufficient to induce a maximal Ca2+ response (Fura-2, HEK-293 cells expressing CCR5), concentration and amount required to produce a detectable Ca2+ response, relative to RANTES(1-68) (Fura-2, HOS-CD4 cells expressing CCR1) (times that for RANTES(1-68)) values, retold here.

For one experiment, the target named is CCR5 (human) (UniProt P51681). In words: cell-based or functional assay.
The target of a further experiment is T1, CCR1 (UniProt P32246).
T1 sequence (looked up): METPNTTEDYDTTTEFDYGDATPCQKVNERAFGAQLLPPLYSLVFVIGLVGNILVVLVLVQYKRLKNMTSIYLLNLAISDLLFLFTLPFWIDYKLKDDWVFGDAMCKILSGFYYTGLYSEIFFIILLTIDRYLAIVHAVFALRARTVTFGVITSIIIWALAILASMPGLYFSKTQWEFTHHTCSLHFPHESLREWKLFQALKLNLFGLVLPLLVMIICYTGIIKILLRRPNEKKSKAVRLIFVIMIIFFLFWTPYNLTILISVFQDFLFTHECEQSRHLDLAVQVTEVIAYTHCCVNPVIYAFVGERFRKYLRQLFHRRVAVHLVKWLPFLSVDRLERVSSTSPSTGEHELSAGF
In words: cell-based or functional assay.

Chain of RANTES(3-68) (P13501 26-91 limits assumed): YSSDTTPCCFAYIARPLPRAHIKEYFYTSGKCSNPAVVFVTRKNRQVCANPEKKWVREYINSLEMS
Chain of CCR5 (human) (P51681 whole entry): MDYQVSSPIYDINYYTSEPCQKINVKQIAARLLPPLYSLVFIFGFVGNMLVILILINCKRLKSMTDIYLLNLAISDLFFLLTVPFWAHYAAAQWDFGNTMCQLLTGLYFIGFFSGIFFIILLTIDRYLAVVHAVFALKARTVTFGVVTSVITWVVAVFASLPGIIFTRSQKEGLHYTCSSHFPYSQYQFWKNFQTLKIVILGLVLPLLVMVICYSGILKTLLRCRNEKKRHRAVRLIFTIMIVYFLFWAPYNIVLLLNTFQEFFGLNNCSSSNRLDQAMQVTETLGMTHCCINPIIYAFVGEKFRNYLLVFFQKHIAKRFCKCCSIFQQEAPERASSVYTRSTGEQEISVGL
Chain of RANTES(1-68) (P13501 24-91): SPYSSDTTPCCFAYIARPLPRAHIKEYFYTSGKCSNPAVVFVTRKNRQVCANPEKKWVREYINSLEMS

Substance “RANTES(1-68) (from UniProt P13501 24-91) (ligand)” displayed a concentration sufficient to induce a maximal Ca2+ response (Fura-2, HEK-293 cells expressing CCR5) with CCR5 (human) of 10 nM. For the same substance, in the experiment with CCR1, the concentration at which the Ca2+ response saturated (Fura-2, HOS-CD4 cells expressing CCR1) turned out to be 50 nM.
For the substance “RANTES(3-68) (from UniProt P13501 26-91) (ligand)”, in the experiment with CCR5 (human), the concentration sufficient to induce a maximal Ca2+ response (Fura-2, HEK-293 cells expressing CCR5) turned out to be 10 nM. In the experiment with CCR1, the amount required to produce a detectable Ca2+ response, relative to RANTES(1-68) (Fura-2, HOS-CD4 cells expressing CCR1) (times that for RANTES(1-68)) was found to be 100 and the concentration at which the Ca2+ response saturated (Fura-2, HOS-CD4 cells expressing CCR1) was over 200 nM.
